Measured values published in the supplement of paper PMC10899765.

system: MCF10A; experiment: percent viability (nuclei count relative to siNT); higher = more viable cells; details: 20 nM; 72 h
Procedure: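 After 72 h, cells were fixed and stained with Hoechst and anti-fibrillarin, and nucleoli per nucleus were counted with CellProfiler. Values are plate-adjusted percent effect for the one-nucleolus and 5+ nucleoli phenotypes, normalised to siNT (0%) and to the positive controls siNOL11 or siKIF11 (100%), as the mean of biological triplicates. Percent viability is the nuclei count relative to siNT.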

Sequence	percent viability
GUCCUCCAGGCCAUGAGCUGCGG [hsa-miR-4691-5p]	89.2%
UUUGGCAAUGGUAGAACUCACACU [hsa-miR-182-5p]	22.8%
CUCGGGCGGAGGUGGUUGAGUG [hsa-miR-4750-5p]	40.2%
CACUGUUUCCUUUCUGAGUGGA [hsa-miR-892c-3p]	93.2%
AUCAACAGACAUUAAUUGGGCGC [hsa-miR-421]	61.3%
ACAACAGUGACUUGCUCUCCAA [hsa-miR-4709-5p]	73.8%
CUUCUUGUGCUCUAGGAUUGU [hsa-miR-578]	32.6%
UGAGGUGACCGCAGAUGGGAA [hsa-miR-7854-3p]	14.8%
UUUAACAUGGGGGUACCUGCUG [hsa-miR-302c-5p]	121%
AAAGACCCAUUGAGGAGAAGGU [hsa-miR-3667-5p]	99.1%
AGGCAUGGGAGGUCAGGUGA [hsa-miR-3622b-5p]	16.5%
CCUCCAAAGGGAAGCGCUUUCUGUU [hsa-miR-519d-5p]	65.3%
AGGAGAAGUCGGGAAGGU [hsa-miR-5703]	30.6%
CAAGCUCGCUUCUAUGGGUCUG [hsa-miR-99a-3p]	70%
AUGGCCAGAGCUCACACAGAGG [hsa-miR-4435]	68%
UGGCCCGGCGACGUCUCACGGUC [hsa-miR-4745-3p]	58.7%
GCAGUCCAUGGGCAUAUACAC [hsa-miR-455-3p]	112%
UAAUCUCAGCUGGCAACUGUGA [hsa-miR-216a-5p]	67.7%
CGGGGCAGCUCAGUACAGGAU [hsa-miR-486-3p]	10.1%
GGUGGGGGGUGUUGUUUU [hsa-miR-4472]	40%
CGGGCUGUCCGGAGGGGUCGGCU [hsa-miR-4741]	65.1%
GCAGAGAACAAAGGACUCAGU [hsa-miR-3919]	23.3%

Sequence	percent viability
UAACGGCCGCGGUACCCUAA [hsa-miR-4485]	32.8%
UUGGCCACCACACCUACCCCUU [hsa-miR-4701-5p]	35.9%
CAGGCAGAAGUGGGGCUGACAGG [hsa-miR-6511a-5p]	69.3%
GAAGAUGGACGUACUUU [hsa-miR-4426]	28.5%
GCAGGAACUUGUGAGUCUCCU [hsa-miR-873-5p]	122%
UUGUGAAGAAAGAAAUUCUUA [hsa-miR-3611]	53.1%
GCUCAUCCCCAUCUCCUUUCAG [hsa-miR-6870-3p]	115%
CUGCCAGCCCCGUUCCAGGGCA [hsa-miR-3972]	42.9%
GAGGUUUGGGGAGGAUUUGCU [hsa-miR-4748]	24.1%
GCUGGUCUGCGUGGUGCUCGG [hsa-miR-3663-5p]	123%
AUGCACCUGGGCAAGGAUUCUG [hsa-miR-500a-3p]	34.2%
AAGCCCUUACCCCAAAAAGCAU [hsa-miR-129-2-3p]	64.7%
UGUCUCUGCUGGGGUUUCU [hsa-miR-593-3p]	18.1%
ACUGGACUUGGAGGCAGAA [hsa-miR-378b]	36.5%
UGCCCUGAGACUUUUGCUC [hsa-miR-7976]	40.8%
UGCACCAUGGUUGUCUGAGCAUG [hsa-miR-767-5p]	65.4%
AUCACAUUGCCAGGGAUUACC [hsa-miR-23b-3p]	103%
AAAAGUAAUUGUGGUUUUUGC [hsa-miR-548ay-5p]	134%
UAAGGGGUGUAUGGCAGAUGCA [hsa-miR-3936]	19.2%
UUAGCGGUGGACCGCCCUGCG [hsa-miR-4321]	47%
UGCGCCUCGGGUGAGCAUG [hsa-miR-668-5p]	43.2%
CCUGGACACCGCUCAGCCGGCCG [hsa-miR-4638-3p]	106%
